{
  "source": "paper PMC9722718",
  "about": "“Structural basis of sequence-specific RNA recognition by the antiviral factor APOBEC3G”",
  "key": {"rA3GR8/E259A [1]": {"target": "T1, rA3GR8/E259A (Macaca mulatta (rhesus macaque), UniProt M1GSK9 1-138+=AEAG+147-383, E259A;internal_change)", "T1 sequence (M1GSK9 entry or part of it E259A/| E259A E259A)": "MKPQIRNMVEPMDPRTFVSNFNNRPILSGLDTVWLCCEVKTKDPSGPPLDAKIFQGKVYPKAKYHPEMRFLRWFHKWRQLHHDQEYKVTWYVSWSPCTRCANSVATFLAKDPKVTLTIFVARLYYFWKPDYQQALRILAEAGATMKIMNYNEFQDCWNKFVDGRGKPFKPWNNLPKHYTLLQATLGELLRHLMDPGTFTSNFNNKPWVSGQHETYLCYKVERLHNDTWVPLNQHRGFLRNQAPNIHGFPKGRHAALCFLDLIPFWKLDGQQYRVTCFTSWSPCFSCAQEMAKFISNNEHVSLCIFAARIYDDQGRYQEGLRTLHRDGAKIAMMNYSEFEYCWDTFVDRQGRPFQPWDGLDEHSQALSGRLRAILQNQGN", "assay": "X-ray crystallography; 1:1; EMSA: 10 nM 6-FAM RNA, 50 mM HEPES pH 7.5, 250 mM NaCl, 1 mM DTT, 0.4 U/ul RNase inhibitor, 10% glycerol, on ice 10 min, 8% native PAGE at 4 C", "settings": "protein: recombinant; tags: 6xHis-SUMO removed by PreScission protease; single strand"}, "rA3GR8": {"target": "rA3GR8 (Macaca mulatta (rhesus macaque), UniProt M1GSK9 1-138+=AEAG+147-383, internal_change)", "sequence (M1GSK9 entry or part of it)": "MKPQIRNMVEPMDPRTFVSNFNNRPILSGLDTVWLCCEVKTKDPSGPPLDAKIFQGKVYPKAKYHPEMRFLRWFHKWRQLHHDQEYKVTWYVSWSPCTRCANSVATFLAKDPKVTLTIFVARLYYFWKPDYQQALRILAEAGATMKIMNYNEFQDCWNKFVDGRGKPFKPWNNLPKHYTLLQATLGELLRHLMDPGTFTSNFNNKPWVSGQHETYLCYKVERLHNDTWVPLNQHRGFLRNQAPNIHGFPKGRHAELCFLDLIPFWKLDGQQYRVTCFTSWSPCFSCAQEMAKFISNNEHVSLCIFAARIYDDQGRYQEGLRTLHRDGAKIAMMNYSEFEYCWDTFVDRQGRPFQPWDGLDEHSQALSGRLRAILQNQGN", "assay": "EMSA; EMSA: 10 nM 6-FAM RNA, 50 mM HEPES pH 7.5, 250 mM NaCl, 1 mM DTT, 0.4 U/ul RNase inhibitor, 10% glycerol, on ice 10 min, 8% native PAGE at 4 C", "settings": "protein: recombinant; tags: 6xHis-SUMO removed by PreScission protease; label: 6-FAM; single strand"}, "rA3GR8/E259A [2]": {"target": "T1, rA3GR8/E259A", "assay": "X-ray crystallography; 1.83 A; 1:1; EMSA: 10 nM 6-FAM RNA, 50 mM HEPES pH 7.5, 250 mM NaCl, 1 mM DTT, 0.4 U/ul RNase inhibitor, 10% glycerol, on ice 10 min, 8% native PAGE at 4 C", "settings": "protein: recombinant; tags: 6xHis-SUMO removed by PreScission protease; single strand"}, "GST-NCp7": {"target": "GST-NCp7 (HIV-1, UniProt P04591 378-432)", "assay": "EMSA; best binder; EMSA: 10 nM 6-FAM RNA, 50 mM HEPES pH 7.5, 250 mM NaCl, 1 mM DTT, 0.4 U/ul RNase inhibitor, 10% glycerol, on ice 10 min, 8% native PAGE at 4 C", "settings": "protein: recombinant; tags: N-terminal GST; label: 6-FAM; single strand"}},
  "data": [
    {"binder": "UUUUAAUUUU (ssRNA)", "note": "[RNA3-AAxtal]", "values": [
      {"measurement": "binding result", "setting": "rA3GR8/E259A [1]", "value": "binds"}
    ]},
    {"binder": "UUUUAAUUUU (ssRNA)", "note": "[RNA3-AA]", "values": [
      {"measurement": "Kd", "setting": "rA3GR8", "value": 10, "unit": "nM"}
    ]},
    {"binder": "UUUUGAUUUU (ssRNA)", "note": "[RNA3-GA]", "values": [
      {"measurement": "Kd", "setting": "rA3GR8", "value": 47, "unit": "nM"}
    ]},
    {"binder": "UUUUAGUUUU (ssRNA)", "note": "[RNA3-AG]", "values": [
      {"measurement": "Kd", "setting": "rA3GR8", "value": 200, "unit": "nM"}
    ]},
    {"binder": "UUUUGAUUUU (ssRNA)", "note": "[RNA3-GAxtal]", "values": [
      {"measurement": "binding result", "setting": "rA3GR8/E259A [2]", "value": "binds"}
    ]},
    {"binder": "UUUUGGUUUU (ssRNA)", "note": "[RNA3-GG]", "values": [
      {"measurement": "binding result", "setting": "GST-NCp7", "value": "binds"}
    ]}
  ]
}
